Reference: publication PMC11847536 (The Journal of Biological Chemistry, 2025)

Key:
[1] = biological target: T1, PRMT5/biotinylated WDR77 complex (UniProt O14744 1-637; Q9BQA1 1-342, biotin (site not stated)); assay: FRET or BRET; TR-FRET equilibrium binding: adaptors labeled by BODIPY-maleimide titrated into PRMT5/biotinylated WDR77 incubated with terbium-coupled streptavidin; conditions: both partners purified
T1 construct: PRMT5 (protein arginine methyltransferase 5); Held by terbium-coupled streptavidin in the TR-FRET assay; copies: 4 + 4
T1 sequence (O14744 whole entry, chain 1 of 2): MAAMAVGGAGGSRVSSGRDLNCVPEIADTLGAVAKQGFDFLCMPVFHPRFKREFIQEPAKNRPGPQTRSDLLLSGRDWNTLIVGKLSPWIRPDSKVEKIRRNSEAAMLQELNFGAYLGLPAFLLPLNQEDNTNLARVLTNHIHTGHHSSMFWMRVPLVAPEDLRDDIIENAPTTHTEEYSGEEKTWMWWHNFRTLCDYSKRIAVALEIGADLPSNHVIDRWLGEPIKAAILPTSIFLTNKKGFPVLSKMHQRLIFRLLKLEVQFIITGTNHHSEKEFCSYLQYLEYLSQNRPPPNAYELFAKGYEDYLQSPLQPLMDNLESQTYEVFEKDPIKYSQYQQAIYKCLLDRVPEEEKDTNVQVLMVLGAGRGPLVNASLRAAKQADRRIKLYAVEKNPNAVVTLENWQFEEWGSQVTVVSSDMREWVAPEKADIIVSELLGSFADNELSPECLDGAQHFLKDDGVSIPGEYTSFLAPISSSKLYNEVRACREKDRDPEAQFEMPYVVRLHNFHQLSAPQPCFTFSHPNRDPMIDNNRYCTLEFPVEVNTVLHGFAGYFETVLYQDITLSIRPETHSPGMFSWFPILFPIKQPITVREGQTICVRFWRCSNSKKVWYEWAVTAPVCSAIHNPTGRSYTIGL
T1 sequence (Q9BQA1 whole entry, chain 2 of 2): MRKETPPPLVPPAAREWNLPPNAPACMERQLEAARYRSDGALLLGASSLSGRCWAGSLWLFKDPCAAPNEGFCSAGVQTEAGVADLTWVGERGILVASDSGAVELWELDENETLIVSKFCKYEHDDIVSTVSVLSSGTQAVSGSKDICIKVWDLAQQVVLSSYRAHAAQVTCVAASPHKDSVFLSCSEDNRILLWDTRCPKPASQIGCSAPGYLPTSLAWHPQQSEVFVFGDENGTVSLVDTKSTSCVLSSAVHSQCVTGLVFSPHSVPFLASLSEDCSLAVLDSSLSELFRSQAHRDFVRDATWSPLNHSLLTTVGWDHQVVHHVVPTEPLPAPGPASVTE

[2] = biological target: T1, PRMT5/biotinylated WDR77 complex; assay: FRET or BRET; TR-FRET displacement: unlabeled pICln, RIOK1 and ΔPBM constructs titrated to displace BODIPY-labeled pICln tracer from PRMT5/WDR77; conditions: both partners purified

Kd [1] [nM] | IC50 [2] [nM] | Binder
32.5 ± 3.8 | – | BODIPY-labeled pICln (natural protein, UniProt P54105 1-237, looked up, BODIPY (labeled by BODIPY-maleimide; site not stated), pICln, PRMT5 substrate adaptor with a PBM peptide in its C-terminal region; also called BODIPY-pICln; source: LBSTR Escherichia coli (Kerafast, EC1002), purified) MSFLKSFPPPGPAEGLLRQQPDTEAVLNGKGLGTGTLYIAESRLSWLDGSGLGFSLEYPTISLHALSRDRSDCLGEHLYVMVNAKFEEESKEPVADEEEEDSDDDVEPITEFRFVPSDKSALEAMFTAMCECQALHPDPEDEDSDDYDGEEYDVEAHEQGQGDIPTFYTYEEGLSHLTAEGQATLERLEGMLSQSVSSQYNMAGVRTEDSIRDYEDGMEVDTTPTVAGQFEDADVDH
– | 69.5 ± 3.3 | pICln (unlabeled) (natural protein, UniProt P54105 1-237, looked up, pICln, PRMT5 substrate adaptor with a PBM peptide in its C-terminal region; Used free in the displacement assay and as a member of the 6S complex in the cryo-EM sample; only the PBM peptide is seen in the map; also called pICIn; source: LBSTR Escherichia coli (Kerafast, EC1002), purified) MSFLKSFPPPGPAEGLLRQQPDTEAVLNGKGLGTGTLYIAESRLSWLDGSGLGFSLEYPTISLHALSRDRSDCLGEHLYVMVNAKFEEESKEPVADEEEEDSDDDVEPITEFRFVPSDKSALEAMFTAMCECQALHPDPEDEDSDDYDGEEYDVEAHEQGQGDIPTFYTYEEGLSHLTAEGQATLERLEGMLSQSVSSQYNMAGVRTEDSIRDYEDGMEVDTTPTVAGQFEDADVDH
